Substrate in data set [1]: CCc1c2c(nc3ccc(OC[C@@H]4O[C@H](C(=O)O)[C@@H](O)[C@H](O)[C@H]4O)cc13)-c1cc3c(c(=O)n1C2)COC(=O)[C@]3(O)CC
Put plainly: (§1) TP_TRANSPORTER: uptake in membrane vesicle from PC-6/SN2-5H cells. Format: functional, cell membranes.

Substrate in data set [2]: CCc1c2c(nc3ccc(O)cc13)-c1cc3c(c(=O)n1C2)COC(=O)[C@]3(O)CC
The description is as §1. The format is functional, cell membranes.

B1: Broad substrate specificity ATP-binding cassette transporter ABCG2 (Homo sapiens) (protein)
chain: MSSSNVEVFIPVSQGNTNGFPATASNDLKAFTEGAVLSFHNICYRVKLKSGFLPCRKPVEKEILSNINGIMKPGLNAILGPTGGGKSSLLDVLAARKDPSGLSGDVLINGAPRPANFKCNSGYVVQDDVVMGTLTVRENLQFSAALRLATTMTNHEKNERINRVIQELGLDKVADSKVGTQFIRGVSGGERKRTSIGMELITDPSILFLDEPTTGLDSSTANAVLLLLKRMSKQGRTIIFSIHQPRYSIFKLFDSLTLLASGRLMFHGPAQEALGYFESAGYHCEAYNNPADFFLDIINGDSTAVALNREEDFKATEIIEPSKQDKPLIEKLAEIYVNSSFYKETKAELHQLSGGEKKKKITVFKEISYTTSFCHQLRWVSKRSFKNLLGNPQASIAQIIVTVVLGLVIGAIYFGLKNDSTGIQNRAGVLFFLTTNQCFSSVSAVELFVVEKKLFIHEYISGYYRVSSYFLGKLLSDLLPMRMLPSIIFTCIVYFMLGLKPKADAFFVMMFTLMMVAYSASSMALAIAAGQSVVSVATLLMTICFVFMMIFSGLLVNLTTIASWLSWLQYFSIPRYGFTALQHNEFLGQNFCPGLNATGNNPCNYATCTGEEYLVKQGIDLSPWGLWKNHVALACMIVIFLTIAYLKLLFLKKYS
Consider B1, for which the Km in data set [1] was 26 µM; in data set [2], 4 µM.

These data come from ChEMBL document CHEMBL2073859, “Transport of 7-ethyl-10-hydroxycamptothecin (SN-38) by breast cancer resistance protein ABCG2 in human lung cancer cells” (Biochem Biophys Res Commun, 2001).
